US20240270826A1
Several values for one entry are separate records, joined by “and”; a condition that tells them apart may be missing. Equal entries are not always repeated. Where two headings read alike, the source gives them in different places.

Columns and labels:
[1] = molecular target: Human SARS-CoV-2_Wuhan S (SmT1) (SARS-CoV-2 (Wuhan)) (UniProt P0DTC2); assay: flow cytometry SVNA: VHH-Fc inhibits S binding to ACE2 on Vero E6 cells
[2] = molecular target: Human SARS-CoV S (SARS-CoV) (UniProt P59594); assay: as above
[3] = molecular target: SARS-CoV-2 S on CHO-S cells (SARS-CoV-2) (UniProt P0DTC2); assay: flow cytometry, CHO-S cells
[4] = molecular target: Human SARS-CoV-2_Wuhan S (SmT1) (SARS-CoV-2 (Wuhan)) (UniProt P0DTC2); assay: flow cytometry SVNA, VHH-Fc vs biotin-S binding to Vero E6 ACE2
[5] = molecular target: SARS-CoV-2 spike protein S on live virus, Wuhan (strain SARS-CoV-2/Canada/VIDO-01/2020) (SARS-CoV-2 (Wuhan)) (UniProt P0DTC2); assay: cell-based or functional assay
[6] = molecular target: SARS-CoV-2 spike trimer S (Wuhan, SmT1) (SARS-CoV-2 Wuhan); assay: SPR, antigen on chip
[7] = molecular target: SARS-CoV-2 S1 (aa16-685) (Wuhan) (SARS-CoV-2 Wuhan) (UniProt P0DTC2); assay: SPR, antigen on chip
[8] = molecular target: SARS-CoV-2 S1-RBD fused to human Fc (S1-RBD-Fc) (SARS-CoV-2 Wuhan; human); assay: SPR, antigen on chip
[9] = molecular target: Human SARS-CoV-2_Wuhan S (SmT1) (SARS-CoV-2 (Wuhan)) (UniProt P0DTC2); assay: flow cytometry SVNA, VHH vs biotin-S binding to Vero E6 ACE2
[10] = molecular target: Human SARS-CoV-2_Wuhan S (SmT1) (SARS-CoV-2 (Wuhan)) (UniProt P0DTC2); assay: SPR, VHH over immobilised S
[11] = molecular target: SARS-CoV spike (S) (SARS-CoV) (UniProt P59594); assay: SPR, VHH over immobilised S
[12] = molecular target: SARS-CoV-2 spike trimer S (Wuhan, SmT1) (SARS-CoV-2 Wuhan); assay: SPR, antigen on chip; remark: listed apart in the source
[13] = molecular target: SARS-CoV-2 S1 (aa16-685) (Wuhan) (SARS-CoV-2 Wuhan) (UniProt P0DTC2); assay: SPR, antigen on chip; remark: listed apart in the source
[14] = molecular target: SARS-CoV-2 S1-RBD fused to human Fc (S1-RBD-Fc) (SARS-CoV-2 Wuhan; human); assay: SPR, antigen on chip; remark: listed apart in the source
[15] = molecular target: Human SARS-CoV-2_Wuhan S (SmT1) (SARS-CoV-2 (Wuhan)) (UniProt P0DTC2); assay: tandem SPR, immobilized S, orientation 1: VHH alone
[16] = molecular target: Human SARS-CoV-2_Wuhan S (SmT1) (SARS-CoV-2 (Wuhan)) (UniProt P0DTC2)

VHH-72 VHH-Fc (Fc fusion) was tested, and the IC50 [1] was 5.6 nM, the IC50 [2] was 7.8 nM and the Bmax [3] was 8030. The EC50 [3] was 0.2 nM, the IC50 [4] was 7.2 nM and the IC99 [4] was 238 nM. It also gave an Imax % [4] of 57%, an LVNA IC50 [5] of 8.46 nM and an MN100 [5] of 1.25 nM.
With VHH-72 VHH the koff [6] was 0.15 s⁻¹, the kon [6] was 1.06e+06 M⁻¹ s⁻¹ and the Kd [7] was 194 nM. It also gave a koff [7] of 0.161 s⁻¹, a kon [7] of 830000 M⁻¹ s⁻¹ and a Kd [8] of 185 nM. The koff [8] was 0.126 s⁻¹, the kon [8] was 682000 M⁻¹ s⁻¹ and the IC50 [9] was 59 nM. It also gave an IC99 [9] of 9.41 µM, an Imax % [9] of 43% and a Kd [10] of 86.2 nM. The koff [10] was 0.106 s⁻¹, the kon [10] was 1.23e+06 M⁻¹ s⁻¹ and the Kd [11] was 6.52 nM. It also gave a koff [11] of 0.00656 s⁻¹, a kon [11] of 1.01e+06 M⁻¹ s⁻¹ and a Kd [12] of 142 nM. The koff [12] was 0.156 s⁻¹, the kon [12] was 1.1e+06 M⁻¹ s⁻¹ and the Kd [13] was 156 nM. It also gave a koff [13] of 0.146 s⁻¹, a kon [13] of 940000 M⁻¹ s⁻¹ and a Kd [14] of 200 nM. The koff [14] was 0.134 s⁻¹, the kon [14] was 667000 M⁻¹ s⁻¹ and the End 1st inj (RU) [15] was 25.8 RU. For the same substance, the MN100 [5] was 156 nM and the End 2nd inj (RU) [16] was 37.8 RU and 51.2 RU.
